Experimental data from paper PMC4001850.
Where “and” joins values, the source holds several entries; their conditions need not be identical. Equal entries are not always repeated. Where two headings read alike, the source gives them in different places.

Columns and labels:
[1] = molecular target: Aβ_(1-40) peptide; test: cross-linking
[2] = molecular target: eAβPP_(19-624), His-Patch thioredoxin fusion of the entire ectodomain of AβPP695 (82-kDa) (human) (UniProt P05067); test: SAXS
[3] = molecular target: Aβ_(1-40) peptide; test: cross-linking; remark: listed apart in the source
[4] = molecular target: Aβ_(1-42) peptide; test: cross-linking

Substance	stoichiometry N [1]	stoichiometry N (Aβ molecules per eAβPP dimer) [2]	stoichiometry N [3]	stoichiometry N [4]
Aβ_(1-40) peptide	12 and 18	8	2	–
Aβ_(1-42) peptide	–	6	–	3
